Data as given in patent US20090068744A1, “VITREOUS CELL LINE” (SENJU PHARMACEUTICAL CO., LTD., priority 2006, published 2009).

Experiments:
[1] = test system: VEGF mRNA expression by a vitreous cell line; experiment: VEGF mRNA expression by RT-PCR after cytokine stimulation of the vitreous cell line; assay type: cell-based, swine; conditions: for VEGF mRNA expression level: cytokine 10 ng/ml, up to 48 hours, FIG. 7, FIG. 9; for VEGF mRNA level as compared to the mRNA level of non-stimulation control: RT-PCR
Protocol: (§1) Changes of VEGF expression due to cytokine stimulation in the vitreous cell line established in Example 1 were examined. The expression of VEGF at an mRNA level was examined by RT-PCR, and the expression at a protein level was examined by ELISA.
To be specific, when the vitreous cell line reached 50-60% confluent, the medium for the cells was exchanged with DMEM containing 1% bovine serum. […] Total RNA was extracted from the stimulated cells, cDNA was synthesized, and PCR was conducted using VEGF primers. The medium of the stimulated cells was used for ELISA. Since an appropriate antibody to swine VEGF is not available, VEGF protein concentration was measured by ELISA using an antibody to human VEGF, and the result was calculated as a reference value led from a human VEGF standard product. PCR was conducted using TOYOBO KOD plus kit and Gene PCR System 9700 (Applied Biosystem). The conditions of PCR were as follows:
(§2) 95° C. 120 seconds; (95° C. 15 seconds, 62° C. 30 seconds, 68° C. 30 seconds)×30 cycles; 68° C. 90 seconds. ELISA was entrusted to Mitsubishi BCL.

[2] = test system: VEGF protein expression by a vitreous cell line; experiment: VEGF protein in culture supernatant by ELISA after cytokine stimulation; assay type: cell-based, swine; conditions: cytokine 10 ng/ml; ELISA with antibody to human VEGF, relative values; FIG. 8
Protocol: as §1
To be specific, when the vitreous cell line reached 50-60% confluent, the medium for the cells was exchanged with DMEM containing 1% bovine serum. After culturing for 24 hours, the cells were stimulated with cytokine (IL-1α, IL-1β, TNFα, PDGF-AA, PDGF-BB or TGFβ) (10 ng/ml) for 48 hours (FIG. 6). Total RNA was extracted from the stimulated cells, cDNA was synthesized, and PCR was conducted using VEGF primers. The medium of the stimulated cells was used for ELISA. Since an appropriate antibody to swine VEGF is not available, VEGF protein concentration was measured by ELISA using an antibody to human VEGF, and the result was calculated as a reference value led from a human VEGF standard product. PCR was conducted using TOYOBO KOD plus kit and Gene PCR System 9700 (Applied Biosystem). The conditions of PCR were as follows:
as §2

B1: PDGF-BB: cytokine used to stimulate the vitreous cell line (10 ng/ml) (protein, UniProt P01127 82-190, looked up)
Platelet-derived growth …: SLGSLTIAEPAMIAECKTRTEVFEISRRLIDRTNANFLVWPPCVEVQRCSGCCNNRNVQCRPTQVQLRPVQVRKIEIVRKKPIFKKATVTLEDHLACKCETVAAARPVT
- VEGF mRNA expression level [1]: a significant change in the VEGF mRNA expression level was not observed

B2: IL-1α: cytokine used to stimulate the vitreous cell line (10 ng/ml) (protein, UniProt P01583 113-271, looked up)
Interleukin-1 alpha: SAPFSFLSNVKYNFMRIIKYEFILNDALNQSIIRANDQYLTAAALHNLDEAVKFDMGAYKSSKDDAKITVILRISKTQLYVTAQDEDQPVLLKEMPEIPKTITGSETNLLFFWETHGTKNYFTSVAHPNLFIATKQDYWVCLAGGPPSITDFQILENQA
- concentration of VEGF protein in the culture supernatant [2]: increased with time
- VEGF mRNA expression level [1]: increased with time
- VEGF mRNA level as compared to the mRNA level of non-stimulation control ([1]; in 12 hours): ≥ 2 fold
- VEGF mRNA level as compared to the mRNA level of non-stimulation control ([1]; in 48 hours): ≥ 2.5 fold
